Starred links: 1 amine or outer side, 2 acyl side, 3 side chain; linkers in the order of their positions; H or OH if unused. Positions of bridges follow the written chain, without caps; N, C: chain ends. No end group written: not given here. TATA = O=C(CC[*:1])N1CN(C(=O)CC[*:2])CN(C(=O)CC[*:3])C1
B1: peptide 64 (FXII618, Arg1 to isoleucine) (peptide)
peptide: ICFRLPCRQLRCR-NH2
modifications: linker 2-7-12 via TATA; N-terminus assumed
SMILES: CC[C@H](C)[C@H](N)C(=O)N[C@H]1CSCCC(=O)N2CN3CN(C2)C(=O)CCSC[C@H](NC(=O)[C@@H]2CCCN2C(=O)[C@H](CC(C)C)NC(=O)[C@H](CCCNC(=N)N)NC(=O)[C@H](Cc2ccccc2)NC1=O)C(=O)N[C@@H](CCCNC(=N)N)C(=O)N[C@@H](CCC(N)=O)C(=O)N[C@@H](CC(C)C)C(=O)N[C@@H](CCCNC(=N)N)C(=O)N[C@H](C(=O)N[C@@H](CCCNC(=N)N)C(N)=O)CSCCC3=O
B2: peptide 65 (FXII618, Arg1 to valine) (peptide)
peptide: VCFRLPCRQLRCR-NH2
modifications: linker 2-7-12 via TATA; N-terminus assumed
SMILES: CC(C)C[C@@H]1NC(=O)[C@H](CCC(N)=O)NC(=O)[C@H](CCCNC(=N)N)NC(=O)[C@@H]2CSCCC(=O)N3CN(CN(C3)C(=O)CCSC[C@H](NC(=O)[C@@H](N)C(C)C)C(=O)N[C@@H](Cc3ccccc3)C(=O)N[C@@H](CCCNC(=N)N)C(=O)N[C@@H](CC(C)C)C(=O)N3CCC[C@H]3C(=O)N2)C(=O)CCSC[C@@H](C(=O)N[C@@H](CCCNC(=N)N)C(N)=O)NC(=O)[C@H](CCCNC(=N)N)NC1=O

What was measured:
Assay in all cases: enzyme inhibition
[1] = biological target: T1, human β-FXIIa (HFXIIAB; Molecular Innovations) (human, UniProt P00748 354-362; P00748 373-615)
T1 chain 1: NGPLSCGQR
T1 chain 2: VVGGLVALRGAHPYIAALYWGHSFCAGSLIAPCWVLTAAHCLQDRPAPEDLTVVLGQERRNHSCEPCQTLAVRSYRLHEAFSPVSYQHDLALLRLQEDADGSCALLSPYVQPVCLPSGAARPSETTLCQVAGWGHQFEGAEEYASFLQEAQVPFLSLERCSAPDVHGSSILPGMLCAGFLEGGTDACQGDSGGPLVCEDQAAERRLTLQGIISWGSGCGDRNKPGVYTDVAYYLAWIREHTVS

factor XIa = factor XIa (human, UniProt P03951 19-625)
factor VIIa = biological target: T2, factor VIIa (human, UniProt P08709 61-466)
T2 chain: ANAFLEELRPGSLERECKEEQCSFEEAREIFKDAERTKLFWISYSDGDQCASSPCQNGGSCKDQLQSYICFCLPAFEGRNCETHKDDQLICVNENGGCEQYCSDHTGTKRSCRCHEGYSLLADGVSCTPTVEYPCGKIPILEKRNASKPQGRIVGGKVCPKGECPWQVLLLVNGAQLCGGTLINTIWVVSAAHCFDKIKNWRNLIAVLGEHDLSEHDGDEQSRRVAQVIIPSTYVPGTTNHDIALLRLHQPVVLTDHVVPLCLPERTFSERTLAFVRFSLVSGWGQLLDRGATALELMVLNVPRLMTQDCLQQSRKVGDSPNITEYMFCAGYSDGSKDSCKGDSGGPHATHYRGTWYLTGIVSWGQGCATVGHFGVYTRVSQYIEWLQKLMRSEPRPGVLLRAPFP

[2] = biological target: human tissue-plasminogen activator (human, UniProt P00750 36-562)
Sequence of human tissue-plasminogen activator (P00750 36-562): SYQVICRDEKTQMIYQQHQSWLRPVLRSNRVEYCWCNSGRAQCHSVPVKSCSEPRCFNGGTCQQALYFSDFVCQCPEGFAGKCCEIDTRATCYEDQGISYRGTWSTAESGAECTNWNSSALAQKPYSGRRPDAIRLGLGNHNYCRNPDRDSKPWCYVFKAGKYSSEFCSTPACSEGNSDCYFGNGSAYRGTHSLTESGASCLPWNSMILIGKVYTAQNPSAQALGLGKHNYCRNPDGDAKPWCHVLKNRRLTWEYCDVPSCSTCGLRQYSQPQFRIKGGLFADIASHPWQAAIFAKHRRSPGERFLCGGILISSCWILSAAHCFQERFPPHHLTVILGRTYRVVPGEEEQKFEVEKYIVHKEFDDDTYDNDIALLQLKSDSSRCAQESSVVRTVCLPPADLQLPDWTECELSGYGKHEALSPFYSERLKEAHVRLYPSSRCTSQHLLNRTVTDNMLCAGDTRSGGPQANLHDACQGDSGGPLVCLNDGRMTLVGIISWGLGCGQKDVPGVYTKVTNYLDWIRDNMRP

plasma kallikrein = plasma kallikrein (human, UniProt P03952 20-638)
Sequence of plasma kallikrein (P03952 20-638): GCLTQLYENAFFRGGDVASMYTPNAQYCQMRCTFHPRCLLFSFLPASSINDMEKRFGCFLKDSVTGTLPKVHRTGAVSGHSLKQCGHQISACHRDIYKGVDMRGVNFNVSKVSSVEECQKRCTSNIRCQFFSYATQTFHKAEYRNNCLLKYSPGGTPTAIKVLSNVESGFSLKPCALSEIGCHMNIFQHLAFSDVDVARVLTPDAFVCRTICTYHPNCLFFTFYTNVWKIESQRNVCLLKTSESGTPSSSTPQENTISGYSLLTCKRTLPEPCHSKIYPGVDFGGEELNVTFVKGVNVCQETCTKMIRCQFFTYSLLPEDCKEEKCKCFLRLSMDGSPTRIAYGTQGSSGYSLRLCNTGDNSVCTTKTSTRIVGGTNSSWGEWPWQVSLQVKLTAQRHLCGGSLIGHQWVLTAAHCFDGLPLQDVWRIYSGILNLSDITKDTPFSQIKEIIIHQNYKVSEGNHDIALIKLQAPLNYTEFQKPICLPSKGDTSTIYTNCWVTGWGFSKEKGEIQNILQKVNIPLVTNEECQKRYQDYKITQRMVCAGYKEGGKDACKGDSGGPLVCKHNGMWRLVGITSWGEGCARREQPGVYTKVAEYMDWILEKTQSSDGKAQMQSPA

plasmin = biological target: T3, plasmin (human, UniProt P00747 97-810)
T3 chain: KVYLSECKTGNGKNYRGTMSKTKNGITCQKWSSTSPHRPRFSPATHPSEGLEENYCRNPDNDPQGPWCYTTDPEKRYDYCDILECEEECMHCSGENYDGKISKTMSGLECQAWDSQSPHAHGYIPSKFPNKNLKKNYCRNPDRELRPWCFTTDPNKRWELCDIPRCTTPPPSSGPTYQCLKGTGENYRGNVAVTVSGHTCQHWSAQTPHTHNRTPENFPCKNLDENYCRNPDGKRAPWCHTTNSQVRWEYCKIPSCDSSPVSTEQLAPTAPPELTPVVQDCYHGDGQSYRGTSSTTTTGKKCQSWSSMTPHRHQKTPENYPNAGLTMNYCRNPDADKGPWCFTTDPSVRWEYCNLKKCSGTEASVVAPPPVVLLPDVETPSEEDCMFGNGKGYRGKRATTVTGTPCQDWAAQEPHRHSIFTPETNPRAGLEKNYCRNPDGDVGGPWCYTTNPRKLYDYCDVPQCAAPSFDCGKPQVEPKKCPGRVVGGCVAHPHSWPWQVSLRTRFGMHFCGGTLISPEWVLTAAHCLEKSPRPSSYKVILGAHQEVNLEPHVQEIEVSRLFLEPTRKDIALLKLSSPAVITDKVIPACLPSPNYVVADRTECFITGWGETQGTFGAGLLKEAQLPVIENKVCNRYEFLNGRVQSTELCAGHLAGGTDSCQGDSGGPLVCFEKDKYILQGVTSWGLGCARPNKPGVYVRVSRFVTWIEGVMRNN

uPA = uPA (human, UniProt P00749 21-431)
factor Xa = biological target: T4, factor Xa (human, UniProt P00742 41-179; P00742 235-488)
T4 chain 1: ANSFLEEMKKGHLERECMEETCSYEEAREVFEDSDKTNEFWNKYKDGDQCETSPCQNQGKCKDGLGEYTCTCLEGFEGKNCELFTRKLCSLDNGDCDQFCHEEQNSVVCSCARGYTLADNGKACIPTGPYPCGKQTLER
T4 chain 2: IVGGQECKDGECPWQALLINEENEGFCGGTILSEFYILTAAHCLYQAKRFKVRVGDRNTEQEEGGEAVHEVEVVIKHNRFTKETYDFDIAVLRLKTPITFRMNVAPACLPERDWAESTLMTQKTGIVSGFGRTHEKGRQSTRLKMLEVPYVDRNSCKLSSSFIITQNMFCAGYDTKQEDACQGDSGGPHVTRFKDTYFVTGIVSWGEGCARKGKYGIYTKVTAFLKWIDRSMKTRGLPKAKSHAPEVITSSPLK

thrombin = thrombin (human, UniProt P00734 328-622)

| Binder | Ki [1] | Ki (factor XIa) | Ki (factor VIIa) | Ki [2] | Ki (plasma kallikrein) | Ki (plasmin) | Ki (uPA) | Ki (factor Xa) | Ki (thrombin) |
| --- | --- | --- | --- | --- | --- | --- | --- | --- | --- |
| B1 | 0.231 µM | – | – | – | – | – | – | – | – |
| H-RCFRLPCRQLRCR-NH2 (linker 2-7-12 via TATA) [FXII618] | – | > 50 µM | > 50 µM | > 50 µM | > 50 µM | > 50 µM | > 50 µM | > 50 µM | > 50 µM |
| B2 | 0.287 µM | – | – | – | – | – | – | – | – |
